Series [1] has as its target T1, VEGF165 (Homo sapiens, UniProt P15692-4 P15692-4:27-191). The series is described as follows: filter; 37 C. The following applies: tags: carrier-free, Sf 21 insect cell expressed, R & D Systems; chain copies: 2 (inferred). On the procedure:
(§1) Nucleic Acid Ligands radiolabeled during transcription by incorporation of α-[³²P]-labeled NTPs, or after synthesis using γ-[³²P]-ATP and T4 polynucleotide kinase, were incubated in low concentration (between 20 and 70 pM) with varying concentrations of VEGF or other growth factors at 37° C. for 15 minutes. Incubations were in TBS, PBS, or HEPES-buffered saline (HBS), pH 7.4, with or without the addition of supplemental divalent cations. Samples were passed through prewashed 0.45 μ Type HA filters (Millipore) followed by a 5-10 ml wash with binding buffer. Filters were immersed in scintillant and counted to quantitate the amount of protein-bound RNA retained by each filter. The equilibrium dissociation constant (KD) of Nucleic Acid Ligand binding to a specific protein was calculated from the data points as described in Green et al. (1996) Biochem. 35: 14413-14424.
Stabilization of oligonucleotides to nucleases is likely to be critical to their success as therapeutic or diagnostic agents. Unfortunately, 2′-OMe-modified nucleoside triphosphates are not generally accepted as substrates by RNA polymerases under standard reaction conditions. However, 2′-OMe purines may be introduced into a specific oligonucleotide by chemical synthesis. […] To identify those purine positions for which 2′-OMe substitution is compatible with high affinity binding to VEGF, several syntheses of ligands t2, t22 and t44 were prepared in which five or six purines at a time were partially substituted with the modified nucleotide (described in Example 3). Affinity selection of each partially substituted library was used to isolate those molecules that retained substantial affinity for VEGF.
Target sequence in this assay (P15692 other isoform, or with tags, fused parts or gaps): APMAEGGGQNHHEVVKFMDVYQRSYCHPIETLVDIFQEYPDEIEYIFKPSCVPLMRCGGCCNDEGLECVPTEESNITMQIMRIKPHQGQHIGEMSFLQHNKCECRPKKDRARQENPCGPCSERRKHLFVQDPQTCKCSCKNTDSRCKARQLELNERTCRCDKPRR

The target of the next series is VEGF121 (Homo sapiens, UniProt P15692-9 P15692-9:27-147). Nature of the series: filter; no measurable affinity. The following applies: tags: carrier-free, E. coli expressed, R & D Systems; chain copies: 2 (inferred).
Chain of VEGF121 (P15692 other isoform, or with tags, fused parts or gaps): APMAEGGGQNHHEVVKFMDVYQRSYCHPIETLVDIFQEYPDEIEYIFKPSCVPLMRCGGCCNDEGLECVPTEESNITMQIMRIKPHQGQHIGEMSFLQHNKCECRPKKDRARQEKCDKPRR
In the next series the target is T2, PlGF (UniProt P49763-2 P49763-2:19-149).
T2 sequence: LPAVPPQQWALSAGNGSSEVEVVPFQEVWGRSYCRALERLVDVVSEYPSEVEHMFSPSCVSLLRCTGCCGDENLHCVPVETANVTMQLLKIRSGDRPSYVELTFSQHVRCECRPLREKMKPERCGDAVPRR
The series is described as follows: filter; no binding to PlGF homodimer. The following applies: tags: carrier-free, E. coli expressed, R & D Systems; chain copies: 2 (stated homodimer). Here is the method: as §1
VEGF is a highly conserved protein across species, the human VEGF₁₆₅ and mouse VEGF₁₆₄ isoforms showing 88% sequence identity. The truncated, 2′-OMe-substituted ligands bound equally well to human and murine VEGF. […] Heterodimers between VEGF and PIGF have recently been isolated from the supernatants of both normal and tumor-derived cell lines, and such heterodimers show activity in binding to one of two high affinity VEGF receptors and in inducing responses in cultured endothelial cells. The biological relevance of VEGF/PIGF heterodimers is unknown. […] Alternatively, the structure of the VEGF subunit may be altered by participation in a heterodimer with PIGF with consequent distortion of the Nucleic Acid Ligand binding surface.

Series [2] addresses T1, VEGF165. The series is described as follows: filter; divalent cations replaced with EGTA; CaCl2 restores binding, MgCl2 does not. The following applies: tags: carrier-free, Sf 21 insect cell expressed, R & D Systems; chain copies: 2 (inferred). Here is the method:
as §1
Ligands in Families 1 and 2 were selected in the presence of magnesium cations while Family 3 ligands were selected in a buffer containing both magnesium and calcium. Since divalent cations may contribute to RNA/protein interactions through nonspecific or specific stabilization of high affinity RNA structures, we asked whether magnesium and/or calcium were required for the high affinity binding of representative ligands to VEGF.

Series [3] concerns the target T1, VEGF165. The series is described as follows: filter; s.d. 11; text gives 49 pM; 37 C; calcium required. The following applies: tags: carrier-free, Sf 21 insect cell expressed, R & D Systems; chain copies: 2 (inferred). Here is the method:
as §1
(§2) 2′OH nucleotides are indicated in bold, and 2′OMe nucleotides are indicated in plain text.

The target of series [4] is T3, VEGF164 (Mus musculus, UniProt Q00731-2 Q00731-2:27-190).
T3 sequence: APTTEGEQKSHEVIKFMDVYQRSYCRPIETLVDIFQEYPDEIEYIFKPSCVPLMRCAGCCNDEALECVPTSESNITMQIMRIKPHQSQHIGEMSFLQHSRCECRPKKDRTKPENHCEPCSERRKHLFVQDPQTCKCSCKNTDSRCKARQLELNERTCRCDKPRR
The series is described as follows: filter; binds equally well to human and murine VEGF. Particulars: tags: carrier-free, Sf 21 insect cell expressed, R & D Systems; chain copies: 2 (inferred). On the procedure:
as §1
(§3) VEGF is a highly conserved protein across species, the human VEGF₁₆₅ and mouse VEGF₁₆₄ isoforms showing 88% sequence identity. The truncated, 2′-OMe-substituted ligands bound equally well to human and murine VEGF. […] Heterodimers between VEGF and PIGF have recently been isolated from the supernatants of both normal and tumor-derived cell lines, and such heterodimers show activity in binding to one of two high affinity VEGF receptors and in inducing responses in cultured endothelial cells. […]

Series [5] deals with T1, VEGF165. The series is described as follows: filter; s.d. 50; 37 C; divalent cation independent. The following applies: tags: carrier-free, Sf 21 insect cell expressed, R & D Systems; chain copies: 2 (inferred). On the procedure:
as §1, §2

Series [6] has as its target T1, VEGF165. Nature of the series: filter; s.d. 36; 37 C; divalent cation independent. The following applies: tags: carrier-free, Sf 21 insect cell expressed, R & D Systems; chain copies: 2 (inferred). Here is the method: as §1, §2
For series [7], the target named is T3, VEGF164. The series is described as follows: filter; bound equally well to human and murine VEGF. Particulars: tags: carrier-free, Sf21-expressed, R&D Systems; chain copies: 2. On the procedure: as §1, §3
In series [8] the target is T1, VEGF165. The series is described as follows: filter; 37 C; variable region starts CCCC in table, CGCC in listing. Particulars: tags: carrier-free, Sf 21 insect cell expressed, R & D Systems; chain copies: 2 (inferred). On the procedure:
as §1

Series [9] deals with T1, VEGF165. The series is described as follows: filter; 37 C; variable region ends GGCT in table, GGGU in listing. The following applies: tags: carrier-free, Sf 21 insect cell expressed, R & D Systems; chain copies: 2 (inferred). Here is the method:
as §1

B1: t44OMe (OH-5,6) (ssRNA)
RNA: GCGGAAUCAGUGAAUGCUUAUACAUCCGC
modifications: 2'-F pyrimidines, 2'-OMe purines except 2'-OH A5, A6
B1 gave a Kd with VEGF165 [1] of 0.04 nM.

B2: t44-OMe (ssRNA)
RNA: CGGAAUCAGUGAAUGCUUAUACAUCCG
modifications: 2'-F pyrimidines, 2'-OMe purines except 2'-OH A4, A5
Consider B2, for which the binding result with VEGF121 was “no binding”; with PlGF, “no binding”; with VEGF164 [4] it was “binds”. The results for the Kd in the series with VEGF165 [2] and with VEGF165 [3] were > 100 nM and 0.051 nM, respectively.

B3: t2-OMe (ssRNA)
RNA: GCGAACCGAUGGAAUUUUUGGACGCUCGC
modifications: 2'-F pyrimidines, 2'-OMe purines except 2'-OH A5, G20
With B3, the binding result in the series with VEGF121 and in the series with PlGF was “no binding” each time. This molecule also gave a Kd with VEGF165 [5] of 0.14 nM.

B4: t2OMe (OH-6,21) (ssRNA)
RNA: GGCGAACCGAUGGAAUUUUUGGACGCUCGCC
modifications: 2'-F pyrimidines, 2'-OMe purines except 2'-OH A6, G21
Regarding B4, in the series with VEGF165 [1], the dissociation constant Kd was found to be 0.06 nM.

B5: t2OMe (OH-6) (ssRNA)
RNA: GGCGAACCGAUGGAAUUUUUGGACGCUCGCC
modifications: 2'-F pyrimidines, 2'-OMe purines except 2'-OH A6
In the series with VEGF165 [1], B5 gave a Kd of 0.5 nM.

B6: t2OMe (OH-21) (ssRNA)
RNA: GGCGAACCGAUGGAAUUUUUGGACGCUCGCC
modifications: 2'-F pyrimidines, 2'-OMe purines except 2'-OH G21
Molecule B6 returned an equilibrium dissociation constant (Kd) with VEGF165 [1] of 20 nM.

B7: t22-OMe (ssRNA)
RNA: GCGGUAGGAAGAAUUGGAAGCGC
modifications: 2'-F pyrimidines, 2'-OMe purines except 2'-OH G4, A6
As to B7, the binding result with VEGF121 and with PlGF was “no binding” each time. Further, the Kd with VEGF165 [6] was determined as 0.067 nM.

B8: t22-OMe (ssRNA)
RNA: GCGGUAGGAAGAAUUGGAAGCGC
modifications: 2'-F pyrimidines; 2'-OMe purines except 2'-OH G4 and A6
Take B8: the binding result with VEGF164 [7] is reported as “binds”.

B9: t22OMe (OH-10,12) (ssRNA)
RNA: GACGAUGCGGUAGGAAGAAUUGGAAGCGC
modifications: 2'-F pyrimidines, 2'-OMe purines except 2'-OH G10, A12
Molecule B9 displayed a Kd with VEGF165 [1] of 0.02 nM.

B10: VP30.29 (ssRNA)
RNA: GGGAGGACGAUGCGGCGCCACUUUGGAAGUUAUUGAAUUUCGCGUCAGACGACUCGCCCGA
modifications: 2'-F pyrimidines
On to B10, for which the equilibrium dissociation constant (Kd) with VEGF165 [8] was determined as 0.007 nM.

B11: t22OMe (OH-12,22) (ssRNA)
RNA: GACGAUGCGGUAGGAAGAAUUGGAAGCGC
modifications: 2'-F pyrimidines, 2'-OMe purines except 2'-OH A12, G22
Take B11: the Kd with VEGF165 [1] was 0.09 nM.

B12: VP40.39 (ssRNA)
RNA: GGGAGGACGAUGCGGCAGUUAAUUAACUUGAGUUGUGAUGUGUGUCGUUAUGGGUCAGACGACUCGCCCGA
modifications: 2'-F pyrimidines
In the series with VEGF165 [9], B12 gave a Kd of 73 nM.

B13: t2-OMe (ssRNA)
RNA: GCGAACCGAUGGAAUUUUUGGACGCUCGC
modifications: 2'-F pyrimidines; 2'-OMe purines except 2'-OH A5 and G20
B13: in the series with VEGF164 [7], the binding result is reported as “binds”.

B14: t22OMe (OH-10,22) (ssRNA)
RNA: GACGAUGCGGUAGGAAGAAUUGGAAGCGC
modifications: 2'-F pyrimidines, 2'-OMe purines except 2'-OH G10, G22
For the molecule B14, binding with VEGF165 [1] was characterised by a dissociation constant (Kd) of 4 nM.

Broadly, the Kd is the constant that tells how readily two partners part at equilibrium.

For the origin of these results see patent publication US20030114404, “Vascular endothelial growth factor (VEGF) nucleic acid ligand complexes” (Gilead Sciences, Inc., published 2003).
